{"source": "patent US20220162268A1", "about": "(BOARD OF TRUSTEES OF MICHIGAN STATE UNIVERSITY, published 2022)", "binders": {"B1": {"name": "Synthetic Zipper6 LINKER mNeonGreen StrepII Tag construct (designed binder)", "chain": "MQKVAQLKNRVAYKLKENAKLENIVARLENDNANLEKDIANLEKDIANLERDVARGSGGGSGGGSMVSKGEEDNMASLPATHELHIFGSINGVDFDMVGQGTGNPNDGYEELNLKSTKGDLQFSPWILVPHIGYGFHQYLPYPDGMSPFQAAMVDGSGYQVHRTMQFEDGASLTVNYRYTYEGSHIKGEAQVKGTGFPADGPVMTNSLTAADWCRSKKTYPNDKTIISTFKWSYTTGNGKRYRSTARTTYTFAKPMAANYLKNQPMYVFRKTELKHSKTELNFKEWQKAFTDVMGMDELYKSAWSHPQFEK", "notes": "also called SZ6-ggs-mNeonGreen; SZ6-mNeonGreen"}, "B2": {"name": "STREP-mScarlet-I (other)", "chain": "MVSKGEAVIKEFMRFKVHMEGSMNGHEFEIEGEGEGRPYEGTQTAKLKVTKGGPLPFSWDILSPQFMYGSRAFIKHPADIPDYYKQSFPEGFKWERVMNFEDGGAVTVTQDTSLEDGTLIYKVKLRGTNFPPDGPVMQKKTMGWEASTERLYPEDGVLKGDIKMALRLKDGGRYLADFKTTYKAKKPVQMPGAYNVDRKLDITSHNEDYTVVEQYERSEGRHSTGGMDELYK", "notes": "Fluorescent cargo without an SZ6 domain; also called untagged cargo"}, "B3": {"name": "Synthetic Zipper6 LINKER mScarlet-I StrepII Tag construct (designed binder)", "chain": "MQKVAQLKNRVAYKLKENAKLENIVARLENDNANLEKDIANLEKDIANLERDVARGSGGGSGGGSMVSKGEAVIKEFMRFKVHMEGSMNGHEFEIEGEGEGRPYEGTQTAKLKVTKGGPLPFSWDILSPQFMYGSRAFIKHPADIPDYYKQSFPEGFKWERVMNFEDGGAVTVTQDTSLEDGTLIYKVKLRGTNFPPDGPVMQKKTMGWEASTERLYPEDGVLKGDIKMALRLKDGGRYLADFKTTYKAKKPVQMPGAYNVDRKLDITSHNEDYTVVEQYERSEGRHSTGGMDELYKSAWSHPQFEK", "notes": "also called SZ6-ggs-mScarlet-I; SZ6-mScarlet-I"}, "B4": {"name": "STREP-mNeonGreen (other, not shown: small tags and cut ends)", "chain": "MVSKGEEDNMASLPATHELHIFGSINGVDFDMVGQGTGNPNDGYEELNLKSTKGDLQFSPWILVPHIGYGFHQYLPYPDGMSPFQAAMVDGSGYQVHRTMQFEDGASLTVNYRYTYEGSHIKGEAQVKGTGFPADGPVMTNSLTAADWCRSKKTYPNDKTIISTFKWSYTTGNGKRYRSTARTTYTFAKPMAANYLKNQPMYVFRKTELKHSKTELNFKEWQKAFTDVMGMDELYK", "notes": "Fluorescent cargo without an SZ6 domain; also called untagged cargo; untagged cargo construct PLacO::mNeonGreen"}}, "key": {"[1]": {"biological_target": "T1, K28A_HO BMC-H 5815ggsSZ5-HA", "T1 construct": "Self-assembles into higher-order sheets in E. coli; also called K28A 5815-Synthetic Zipper5 construct; K28AHO BMC-H-SZ5", "T1 chain": "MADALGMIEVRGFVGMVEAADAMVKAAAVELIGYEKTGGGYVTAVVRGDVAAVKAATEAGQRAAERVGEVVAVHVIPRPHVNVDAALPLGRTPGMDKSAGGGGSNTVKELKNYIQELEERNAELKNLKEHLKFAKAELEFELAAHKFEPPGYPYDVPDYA", "assay": "fluorescence co-localization in E. coli, deconvolved widefield (FIG. 2C)"}, "[2]": {"biological_target": "T1, K28A_HO BMC-H 5815ggsSZ5-HA", "assay": "fluorescence microscopy of E. coli co-expressing both, 100 µM or 500 µM IPTG (FIG. 2I)"}, "[3]": {"biological_target": "T1, K28A_HO BMC-H 5815ggsSZ5-HA", "assay": "fluorescence co-localization in E. coli, 100 µM or 500 µM IPTG (FIG. 2I)"}, "[4]": {"biological_target": "T1, K28A_HO BMC-H 5815ggsSZ5-HA", "assay": "live-cell fluorescence time course in E. coli", "description": "E. coli BL21 ArcticExpress (DE3) competent cells (Agilent) were used for cellular expression studies. Competent cells were transformed with constructs containing the gene(s) of interest and plated on LB agar plates with the appropriate antibiotic(s) to provide selection. Individual colonies were picked into 5 mL LB cultures with the appropriate antibiotics(s) and incubated at 30° C., with a rotational stirring of 250 RPM. These overnight cultures were inoculated 1:100 into fresh liquid cultures with conditions dependent upon the experimental plan. For TEM analysis, cells were inoculated in 50 mL LB, grown until ˜OD₆₀₀ 0.8, induced with 100 μM IPTG, and incubated for an additional 6 hours, before 2 mL of the parent culture was fixed overnight at 4° C. Cells used to purify protein were cultured in a similar manner, the whole culture was pelleted, and cell pellets were stored at −20° C. for subsequent protein isolation. Cultures analyzed via light microscopy were inoculated into 1 mL LB or SOB media in culture tubes and incubated the indicated amount of time before imaging. Appropriate inducer(s) (IPTG or aTc) were added as indicated for each experimental design.\nThe dynamics of scaffold nucleation and maturation was then visualized over time in live cells. […]"}}, "data": [{"binder": "B1", "values": [{"measurement": "binding result", "setting": "[1]", "result": "binds"}]}, {"binder": "B2", "values": [{"measurement": "binding result", "setting": "[2]", "result": "no binding"}]}, {"binder": "B3", "values": [{"measurement": "binding result", "setting": "[3]", "result": "binds"}]}, {"binder": "B4", "values": [{"measurement": "binding result", "setting": "[4]", "result": "no binding"}]}]}
